Experimental data: patent US20150344540A1, “NOVEL GLP-1 RECEPTOR AGONISTS WITH CHOLESTEROL EFFLUX ACTIVITY” (NOVO NORDISK A/S, priority 2012, published 2015)
Where no end group is shown, it is not given here. [ ]: non-standard residue; d: D form. Aib = CC(C)(N)C(=O)O

target: human GLP-1 receptor (human, UniProt P43220); assay: cell-based or functional assay

| Binder | CRE luciferase EC50, 0% HSA [nM] | CRE luciferase EC50, 1% HSA [nM] |
| --- | --- | --- |
| H[Aib]EGTFTSDVSSYLEPEAVKEFIAWLVEK[Aib]KEFL-NH2 (N-terminus assumed; SMILES CC[C@H](C)[C@H](NC(=O)[C@H](Cc1ccccc1)NC(=O)[C@H](CCC(=O)O)NC(=O)[C@H](CCCCN)NC(=O)[C@@H](NC(=O)[C@H](C)NC(=O)[C@H](CCC(=O)O)NC(=O)[C@@H]1CCCN1C(=O)[C@H](CCC(=O)O)NC(=O)[C@H](CC(C)C)NC(=O)[C@H](Cc1ccc(O)cc1)NC(=O)[C@H](CO)NC(=O)[C@H](CO)NC(=O)[C@@H](NC(=O)[C@H](CC(=O)O)NC(=O)[C@H](CO)NC(=O)[C@@H](NC(=O)[C@H](Cc1ccccc1)NC(=O)[C@@H](NC(=O)CNC(=O)[C@H](CCC(=O)O)NC(=O)C(C)(C)NC(=O)[C@@H](N)Cc1c[nH]cn1)[C@@H](C)O)[C@@H](C)O)C(C)C)C(C)C)C(=O)N[C@@H](C)C(=O)N[C@@H](Cc1c[nH]c2ccccc12)C(=O)N[C@@H](CC(C)C)C(=O)N[C@H](C(=O)N[C@@H](CCC(=O)O)C(=O)N[C@@H](CCCCN)C(=O)NC(C)(C)C(=O)N[C@@H](CCCCN)C(=O)N[C@@H](CCC(=O)O)C(=O)N[C@@H](Cc1ccccc1)C(=O)N[C@@H](CC(C)C)C(N)=O)C(C)C) [[Aib8,Pro22,Glu23,Val25,Glu34,Lys35,Aib36,Lys37]-GLP-1-(7-37)-peptidyl-Glu-Phe-Leu amide] | 7.53 | 0.936 |
| H[Aib]EGTFTSDVSSYLEGQAVKQFIAWLVQK[Aib]KQFL-NH2 (N-terminus assumed; SMILES CC[C@H](C)[C@H](NC(=O)[C@H](Cc1ccccc1)NC(=O)[C@H](CCC(N)=O)NC(=O)[C@H](CCCCN)NC(=O)[C@@H](NC(=O)[C@H](C)NC(=O)[C@H](CCC(N)=O)NC(=O)CNC(=O)[C@H](CCC(=O)O)NC(=O)[C@H](CC(C)C)NC(=O)[C@H](Cc1ccc(O)cc1)NC(=O)[C@H](CO)NC(=O)[C@H](CO)NC(=O)[C@@H](NC(=O)[C@H](CC(=O)O)NC(=O)[C@H](CO)NC(=O)[C@@H](NC(=O)[C@H](Cc1ccccc1)NC(=O)[C@@H](NC(=O)CNC(=O)[C@H](CCC(=O)O)NC(=O)C(C)(C)NC(=O)[C@@H](N)Cc1c[nH]cn1)[C@@H](C)O)[C@@H](C)O)C(C)C)C(C)C)C(=O)N[C@@H](C)C(=O)N[C@@H](Cc1c[nH]c2ccccc12)C(=O)N[C@@H](CC(C)C)C(=O)N[C@H](C(=O)N[C@@H](CCC(N)=O)C(=O)N[C@@H](CCCCN)C(=O)NC(C)(C)C(=O)N[C@@H](CCCCN)C(=O)N[C@@H](CCC(N)=O)C(=O)N[C@@H](Cc1ccccc1)C(=O)N[C@@H](CC(C)C)C(N)=O)C(C)C) [[Aib8,Val25,Gln27,Gln34,Lys35,Aib36,Lys37]-GLP-1-(7-37)-peptidyl-Gln-Phe-Leu amide] | 0.601 | 0.229 |
| HAEGTFTSDVSSYLEGQAAKEFIAWLVEKVKEFLE-NH2 [[Glu34,Lys35,Val36,Lys37]-GLP-1-(7-37)-peptidyl-Glu-Phe-Leu-Glu amide] | 0.114 | 0.028 |
| HAEGTFTSDVSSYLEGQAAKEFIAWLVEKVKEFL-NH2 [[Glu34,Lys35,Val36,Lys37]-GLP-1-(7-37)-peptidyl-Glu-Phe-Leu amide] | 0.116 | 0.023 |
| HAEGTFTSDVSSYLEGQKAKEFIAWLVEGVKEFL-NH2 [[Lys24,Glu34,Val36,Lys37]-GLP-1-(7-37)-peptidyl-Glu-Phe-Leu amide] | 0.702 | 0.112 |
